According to the supplement of paper PMC9170038:

Tested on: MS2 coat protein
Assay: apparent KD of MS2 coat protein; designed switch direction (-1 OFF switch, 1 ON switch): -1; higher = weaker reporter binding
Method in brief: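 Designed RNA switches with common flanks were made on Illumina chips by stalled E. coli RNA polymerase. Titration with SNAP-549-labelled MS2 coat protein doubled from 0.7 or 1.5 nM up to 3 µM. Apparent KD is each design's median over clusters after curve-fitting normalised fluorescence.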

[1] = input ligand: microRNA oligo, concentration not stated
[2] = Eterna round: R95, input ligand: microRNA oligo, concentration not stated
[3] = Eterna round: R95, input ligand: FMN 200 uM
[4] = Eterna round: R95, input ligand: none

Row | Sequence | apparent KD of MS2 coat protein (input ligand: FMN 200 uM) [nM] | apparent KD of MS2 coat protein (input ligand: none) [nM] | apparent KD of MS2 coat protein [1] [nM] | apparent KD of MS2 coat protein [2] [nM] | apparent KD of MS2 coat protein [3] [nM] | apparent KD of MS2 coat protein [4] [nM]
1 | AGUAGGAGAGGAUAUACGAAGUCAAAAGACUUCAAUACUCAACAUGAGGAUCACCCAUGUAGAAGGCUCCUACA [Omei Ex2 BD A4] (Eterna round: R97, puzzle: Exclusion 2) | 22.9 | 19.4 | – | – | – | –
2 | UUUGUCUGUGUGAGGAUAUACUUGUUUGGGUUUUUGUAGAAGGCACAUGAGGAUCACCCAUGUAUUUUGUCGUG [JR_BME4_Sub018] (Eterna round: R96, puzzle: Brourd's mod of Exclusion 4) | 77.7 | 41.9 | 34.1 | – | – | –
3 | AAAAGAUAAGGAUAUUGAAGGUUCGACAUGAGGAUCACCCAUGUUAUGUUGGAAAAGGGACAAGAAGGUAUGAAAG [salish99_ex5_r4_203] (Eterna round: R97, puzzle: Exclusion 5) | 31.5 | 41.8 | – | – | – | –
4 | UGUUGUUACGCAGGAUAUGAGGAUCACCCAUAGUAGGAUAACGAAAGUGAAGGACUGAGGAUUACCCAGAAGGGCGGGUUAACA [pwkr exNG2 2xF5 2xFMN.3] (Eterna round: R96, puzzle: Exclusion NG 2) | 1010 | 154 | 101 | – | – | –
5 | GUGUGCAGAGGAUAUACAUAGGAAUAUAAUAUAAUAUAAUUACAUGAGGAUCACCCAUGUAGAAGGCUGAGUGU [Excluse me!! 18 - Jieux - Exclusion 2] (puzzle: Exclusion 2) | – | – | – | 24.3 | – | –
6 | AUCGUGCAGCUUUGCUGUACGAGUACAUGAGGAUCACCCAUGUAGGAUAUGGUACGCUUUGCGUGCUAGAAGGAUAUGAGAUUA [EX ENG3 1.48] (Eterna round: R96, puzzle: Exclusion NG 3) | 40.2 | 31 | 28.5 | – | – | –
7 | CUGAGCAGACGGAGAUCCAACAUGAGGAUCACCCAUGUCUCAAAAGCUUUUUGCUCGUCUUAUCCUCCUCUGCUCUC [Orgeain] (puzzle: Sensor v3, turn-off variant 1) | – | – | – | 31.6 | 14.8 | 14.1
8 | UAUAUAUAGUAAGGAUAUAUAUUUAUUUUAUAAAUAGAAGGUACAGACAUGAGGAUCACCCAUGUUAUAAUAUGGACAUGUGGA [JMF's Solution 1] (Eterna round: R96, puzzle: Exclusion NG 1) | – | – | 45.3 | – | – | –
9 | UAUAUAUAGUAAGGAUAUGUAUAUAUAUUAUAAACAGAAGGUACUGACAUGAGGAUCACCCAUGUUUUAGUGUGGGCAUGUAGA [JMF's solution 58] (Eterna round: R96, puzzle: Exclusion NG 1) | – | – | 53.8 | – | – | –
10 | GAGUACUGAGGAUAUACAUGAGGAUCACCCAUGUGUUCCAACUAGGAAUCUAGAAUAUGUAGAAGGCAGUGCUG [salish99_ex3_r4_702] (Eterna round: R97, puzzle: Exclusion 3) | 71.3 | 123 | – | – | – | –
11 | AAGAGGUCAGGAUAUACGGGAAGAGGGAGAAGUAGAGGGUAACAUGAGGAUCACCCAUGUAGAAGGGACUAAGA [JR_Exclu2_Sub073] (puzzle: Exclusion 2) | – | – | – | 26.4 | 26.7 | 28.1
12 | AUCAUGUAAGGAUAUCUUAUAUGGAUCUUCGGAUCAAGUUAAGAGAAGGUACAUGAGGAUCACCCAUGUAUAAC [Ex4-3: 32] (puzzle: Exclusion 4) | – | – | – | 24.3 | – | –
13 | AUAAUUUAAGUCAGGAUAUACCUAUGGAAACAUAGGUAGAAGGGACAUGAGGAUCACCCAUGUUUAUAUACAUA [Fiskers BMX 4 - 4] (puzzle: Brourd's mod of Exclusion 4) | – | – | – | 16.8 | 29.8 | 15.1
14 | UUACAAUGUCGCUUAUAAGCUUUUUGCUCGUCUUAUAUUACAUGAGGAUCACCCAUGUAGAUCAUGUGGCGUGACCU [JL ViennaUCT Maridi mod 8] (puzzle: Sensor v3, turn-off variant 2) | – | – | – | 47.9 | 264 | 345
15 | UUCUUGGCAGGAUAUGCUCUUUUAGACAUGAGGAUCACCCAUGUGUUUAUUCUUUUUUUUGCAGAAGGGCCUUAAU [JR_E5_Sub044] (Eterna round: R96, puzzle: Exclusion 5) | 176 | 98.1 | 68.6 | – | – | –
16 | UAUUCACAUGAGGAUCACCCAUGUCAGGAUAUAUUCGAUAUAUGGAAACAUAUAUCGAAUAGAAGGGACUAGCG [Jieuxxlusion 10 - Jieux - Exclusion 1] (Eterna round: R97, puzzle: Exclusion 1) | 54.6 | – | – | – | – | –
17 | UUAAUGUGAGGAUAUCAGGUGUGAUAGAGUAAUGGUAAAUCUGAGAAGGCACAUGAGGAUCACCCAUGUUCUUC [Mat - Exclusion 4 - Mod of JL - D58] (puzzle: Exclusion 4) | – | – | – | 21.5 | – | –
18 | UUGAGGUAAGGAUAUAUUAGGAGCGAAGUUACUUGUUUUUUAUAGAAGGUACAUGAGGAUCACCCAUGUGAAUA [JR_Exclu4_Sub062] (puzzle: Exclusion 4) | – | – | – | 24.7 | – | –
19 | AAUGAUUGAUGAGGAUAUUGUGGUGAAACACGACGAGAAGGCAUAUGUCACAUGAGGAUCACCCAUGUGAGCCUUGUGGAUAUA [Ex NG1 #66] (Eterna round: R96, puzzle: Exclusion NG 1) | 115 | 57.9 | 45.9 | – | – | –
20 | UAUUAACAAGUAAGAUCCAACAUGAGGAUCACCCAUGUGCUCGUCUUAUAAGGUACUGUGACGAAAGUCACGGUACC [Eli 87 v1] (Eterna round: R97, puzzle: Sensor, turn-off variant 1) | 21.2 | 21.8 | – | – | – | –
21 | GAUUAUGCGAGCUUUAGGGACAUGAGGAUCACCCAUGUUCGUCUUAUUGAUCUAAGUGCACUAACAUACCUAAAUCU [JMF 29] (puzzle: Sensor v3, turn-off variant 1) | – | – | – | 53.7 | 25.1 | 27
22 | GUACUGACAGGAUAUACAUGAGGAUCACCCAUGUCCUUAAGCUGACAAAAGUCAGCAAGUAGAAGGGUCUGUAC [Omei Ex3 Model Bachelor's Dilema v1] (Eterna round: R97, puzzle: Exclusion 3) | 498 | 79.4 | – | – | – | –
23 | AUACCACGAGGAUAUCGUCUAUAAUACAUGAGGAUCACCCAUGUUAUAUCUGUAAUGUUUCGAGAAGGCGUGUGUU [JR_E5_Sub084] (puzzle: Exclusion 5) | – | – | – | 17.9 | – | –
24 | UGUGCGUAUGUGAGGAUAUGCUGGUCCUUGGAUCGGCAGAAGGCACAUGAGGAUCACCCAUGUGGUGUCGUACG [salish99_Bmod_ex4_079] (puzzle: Brourd's mod of Exclusion 4) | – | – | – | 82.8 | 191 | 142
25 | GGCGAGCGAGGAUAUACAGGGUAUCCGACUCGCCGCGGGCGACAUGAGGAUCACCCAUGUAGAAGGCGCACGCG [EX2 A.18] (Eterna round: R97, puzzle: Exclusion 2) | 13.9 | 17.6 | – | – | – | –
26 | AAAAGGCUAGGAUAUCGCGGUAACAACAUGAGGAUCACCCAUGUGAAGGUGUCUUCUGCCCGAGAAGGAGCAGAGU [Tientixe] (puzzle: Exclusion 5) | – | – | – | 25.6 | 43.2 | 29.9
